Test results: patent publication US11857609B2, “Ocular delivery of cell permeant therapeutics for the treatment of retinal edema” (The Trustees of Columbia University in the City of New York, dated 2024)

Experiments:
[1] = target: T1, activated (cleaved) caspase-9 from mouse retina (mouse, UniProt Q8C3Q9); test: co-immunoprecipitation from mouse retina lysates after RVO and Pen1-XBIR3: anti-His IP, western blot for clCasp9, 4 h
Excerpt: (§1) To show target engagement, after RVO, mice were given Penl-XBIR3 and retinas were harvested and immunoprecipitated with anti-His followed by western blot for clCasp9 (FIG. 5, right panel).

[2] = target: T1, activated (cleaved) caspase-9 from …; test: co-immunoprecipitation from mouse retina lysates after RVO and Pen1-XBIR3: anti-His IP, western blot for clCasp9, 24 h
Excerpt: as §1

fold increase in binding [1]: 21 fold
fold increase in binding [2]: 45 fold
B1: Penetratin1-XBIR3 conjugate (other)
chain 1: CRQIKIWFQNRRMKWKK
chain 2: MGSSHHHHHHSSGLVPRGSHMSTNTCLPRNPSMADYEARIFTFGTWIYSVNKEQLARAGFYTDWALGEGDKVKCFHCGGGLRPSEDPWEQHARWYPGCRYLLEQRGQEYINNIHLTHS
modifications: N-terminal C(NPys) as printed; linked to XBIR3 by a disulfide bond (-s-s-); linked to Penetratin1 by a disulfide bond
